Test results taken from the supplement of paper PMC10567573.

B1: TCAP (parent)
chain: YQRVLPLPIFTPAKMGATKEERED
B2: PDLIM4 (parent)
chain: FLDERLYCESHAKARVKPPEGYDV

Variants of: B1
Experiment: protein stability index of a GFP-peptide fusion (GPS, HEK-293T) (PSI 1-6); higher = more stable
Conditions: c terminus: a fixed tail appended
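Also: lentivirally expressed fusions sorted by FACS into six bins by GFP to DsRed ratio, PSI derived from sequencing read proportions per bin multiplied by bin number.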

Protein stability index: each site, then its substitutions
R3: Y 4.55; I 1.73; C 3.12
L7: D 2.1; W 2.86; V 2.4; C 1.42; S 2.31; Q 2.56; K 3.33; I 2.19; M 2.43; Y 2.71; P 2.59; A 1.75; H 4.72; R 3.08; G 2.46; N 1.54; E 2.61; F 1.76; T 1.73
P12: E 3.02; M 2.91; C 2.16; V 3.07; D 2.92; R 3.47; T 3.26; K 3.2; S 3.2; H 3.12; Y 2.74; A 3.44; F 2.98; N 2.82; Q 3.84; I 3.48; G 3.11; W 1.94; L 2.64
P8: A 1.96; E 2.46; N 2.11; T 2.32; W 2.73; Y 2.51; G 1.37; C 2.62; I 2.15; H 2.15; D 1.57; K 2.18; M 2.36; R 1.88; L 1.64; F 1.45; Q 2.12; V 2
G16: P 1.96; Y 2.07; S 2.16; E 2.16; I 1.92; L 1.81; V 2.39; K 1.7; F 2.14; R 2.05; Q 2.24; C 2.06; H 1.34; D 1.92; A 1.9; M 1.56; W 1.8; T 1.95; N 1.67
Y1: G 4.97; D 5.35; I 3.9; V 4.33; R 4.53; N 5.03; H 4.68; L 4.21; C 4.53; S 5.4; W 2.93; Q 5.25; A 5.43; P 5.44; M 4.64; E 5.33; K 5.06; T 4.79; F 2.09
A13: V 2.2; E 2.9; T 2.64; N 1.67; F 2.04; H 1.69; I 2.18; Q 1.95; Y 1.86; D 2.95; R 2.44; P 3.8; G 2.38; M 2.31; S 2.53; W 2.02; L 1.76; C 1.72; K 2.44
P6: S 1.82; G 1.9; A 2.09; V 2.17; H 2.11; Y 2.35; L 1.73; E 2.22; C 1.72; R 1.66; N 1.35; K 1.89; D 2.62; Q 1.91; F 2.25; W 1.56; T 2.05; I 2.19; M 1.65
M15: C 2.12; G 2.31; T 2.05; W 1.72; Q 2.26; S 2.92; V 2.39; Y 2.21; H 2.57; K 2.38; R 2.21; F 2.14; N 2.38; L 2.42; I 2.1; A 2.38; D 2.23; E 2.64; P 2.69
T18: I 1.81; H 1.95; G 1.96; E 3.02; A 1.79; F 1.76; D 2.25; C 2.12

Variants of: B2
Experiment: as above
Conditions: c terminus: a fixed tail appended

Protein stability index, by site and new letter:
V24: T 1.53; S 2.82; R 1.99; W 1.91; Y 1.6
